Source: patent publication US20230235013A1 (MABSOLVE, published 2023)
Residue numbers refer to the chain shown, from its start. Names and notes keep the numbering of the source.

B1: anti-CD20 human IgG1 G236R/L328R (antibody)
heavy: not shown
light: QIVLSQSPAILSASPGEKVTMTCRASSSVSYIHWFQQKPGSSPKPWIYATSNLASGVPVRFSGSGSGTSYSLTISRVEAEDAATYYCQQWTSNPPTFGGGTKLEIKRTVAAPSVFIFPPSDEQLKSGTASVVCLLNNFYPREAKVQWKVDNALQSGNSQESVTEQDSKDSTYSLSSTLTLSKADYEKHKVYACEVTHQGLSSPVTKSFNRGEC
notes: also called 2-68
B2: anti-CD20 human IgG1 L234H/L235S/G236R (antibody)
heavy: QVQLQQPGAELVKPGASVKMSCKASGYTFTSYNMHWVKQTPGRGLEWIGAIYPGNGDTSYNQKFKGKATLTADKSSSTAYMQLSSLTSEDSAVYYCARSTYYGGDWYFNVWGAGTTVTVSSASTKGPSVFPLAPSSKSTSGGTAALGCLVKDYFPEPVTVSWNSGALTSGVHTFPAVLQSSGLYSLSSVVTVPSSSLGTQTYICNVNHKPSNTKVDKKVEPKSCDKTHTCPPCPAPEHSRGPSVFLFPPKPKDTLMISRTPEVTCVVVDVSHEDPEVKFNWYVDGVEVHNAKTKPREEQYNSTYRVVSVLTVLHQDWLNGKEYKCKVSNKALPAPIEKTISKAKGQPREPQVYTLPPSRDELTKNQVSLTCLVKGFYPSDIAVEWESNGQPENNYKTTPPVLDSDGSFFLYSKLTVDKSRWQQGNVFSCSVMHEALHNHYTQKSLSLSPGK
light: B1 light
notes: also called 2-21; 1-74
B3: anti-CD20 human IgG1 L234Q/L235T/G236R (antibody)
heavy: B2 heavy with H238Q, S239T
light: B1 light
notes: also called 1-120
B4: anti-CD20 human IgG1 L235V/F243L/R292P/Y300L/P396L (antibody)
heavy: B2 heavy with H238L, S239V, R240G, F247L, R296P, Y304L, P400L
light: B1 light
notes: also called 2-72
B5: anti-CD20 human IgG1 L234T/G236R (antibody)
heavy: not shown
light: B1 light
notes: also called 2-59; 1-159
B6: anti-CD20 human IgG1 L234K/L235R/G236R (antibody)
heavy: B2 heavy with H238K, S239R
light: B1 light
notes: also called 1-88; 2-23; copies: 2 + 2
B7: anti-CD20 human IgG1 L234K/L235S/G236R (antibody)
heavy: B2 heavy with H238K
light: B1 light
notes: also called 1-89; 2-24; copies: 2 + 2
B8: anti-CD20 human IgG1 L234Q/L235R/G236R (antibody)
heavy: B2 heavy with H238Q, S239R
light: B1 light
notes: also called 2-32; copies: 2 + 2
B9: anti-CD20 human IgG1 L234T/L235S/G236R (antibody)
heavy: B2 heavy with H238T
light: B1 light
notes: also called 2-62; copies: 2 + 2
B10: anti-CD20 human IgG1 L234R/L235R/G236R (antibody)
heavy: B2 heavy with H238R, S239R
light: B1 light
notes: also called 2-43; copies: 2 + 2
B11: anti-CD20 human IgG1 L234S/L235G/G236R (antibody)
heavy: B2 heavy with H238S, S239G
light: B1 light
notes: also called 1-140; 2-47; copies: 2 + 2
B12: anti-CD20 human IgG1 L234R/L235H/G236R (antibody)
heavy: B2 heavy with H238R, S239H
light: B1 light
notes: also called 2-38; copies: 2 + 2
B13: anti-CD20 human IgG1 L234T/L235K/G236R (antibody)
heavy: B2 heavy with H238T, S239K
light: B1 light
notes: also called 2-58; copies: 2 + 2
B14: anti-CD20 human IgG1 L234R/L235I/G236R (antibody)
heavy: B2 heavy with H238R, S239I
light: B1 light
notes: also called 2-39; copies: 2 + 2
B15: anti-CD20 human IgG1 L234D/L235S/G236R (antibody)
heavy: B2 heavy with H238D
light: B1 light
notes: also called 1-29; 2-10; copies: 2 + 2
B16: anti-CD20 human IgG1 L234R/L235K/G236R (antibody)
heavy: B2 heavy with H238R, S239K
light: B1 light
notes: also called 2-40; copies: 2 + 2
B17: anti-CD20 human IgG1 L234K/L235V/G236R (antibody)
heavy: B2 heavy with H238K, S239V
light: B1 light
notes: also called 1-91; 2-26; copies: 2 + 2
B18: anti-CD20 human IgG1 L234Q/L235A/G236R (antibody)
heavy: not shown
light: B1 light
notes: also called 2-27; copies: 2 + 2
B19: anti-CD20 human IgG1 L234A/L235S/G236R (antibody)
heavy: not shown
light: B1 light
notes: also called 1-14; 2-4; copies: 2 + 2
B20: anti-CD20 human IgG1 L234Q/L235D/G236R (antibody)
heavy: B2 heavy with H238Q, S239D
light: B1 light
notes: also called 2-28; copies: 2 + 2
B21: anti-CD20 human IgG1 L234K/L235T/G236R (antibody)
heavy: B2 heavy with H238K, S239T
light: B1 light
notes: also called 1-90; 2-25; copies: 2 + 2
B22: anti-CD20 human IgG1 L234R/L235D/G236R (antibody)
heavy: B2 heavy with H238R, S239D
light: B1 light
notes: copies: 2 + 2

molecular target: T1, Histidine-tagged recombinant human FcγRI (CD64) (human, UniProt P12314 16-288, limits assumed); test: SPR, His-FcγRI captured; Expt 3;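 further: biacore T200 SPR at 25 °C, Fc-variant antibodies at 100 µg/mL flowed 1 min over anti-His-captured FcγRI, signal taken just before injection end minus a buffer blank cycle; antibody analyte injected at 100 µg/mL for 1 min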
T1 construct: bought
Method: Binding analysis was carried out by surface plasmon resonance at 25° C. using a Biacore® T200 instrument with Biacore® T200 control software. The sample compartment was held at 5° C. The running buffer (HBS-EP+) consisted of 0.01 M HEPES pH 7.4, containing 0.15 M NaCl, 3 mM EDTA, and 0.05% v/v Surfactant P20. Methods were run using the manufacturer's standard method wizards as described in the Biacore® T200 Instrument Handbook.
The cell was activated by treatment with EDC/NHS for 7 min. The antibody was diluted to 10 μg/mL in 10 mM sodium acetate pH 5.0 and injected for 7 min at 5 μL/min. The flow cell was deactivated by injection of 1M ethanolamine for 7 min. This process was repeated in the absence of anti-his antibody on a separate flow cell to generate a reference surface. […] Samples of purified antibodies comprising variant Fc regions (1 mg/mL in PBS) were diluted with running buffer to 100 μg/mL and were injected for 1 min at 30 μL/min and allowed to disassociate for 2 min. Between each cycle, the chip was regenerated by injection of 10 mM glycine pH 3.0 for 0.5 min at a flow rate of 30 μL/min and recharged with a fresh injection of FcγRI. At the beginning of each experiment, three blank cycles were run, with buffer alone being injected instead of test sample. The average SPR signal (relative to the reference cell) was measured in a window approximately 8 to 13 seconds before the injection of test sample (baseline) and approximately 3 to 8 seconds before the end of injection (response). The response of the third of the blank (buffer) samples was subtracted from the response of each test sample in order to allow for any dissociation of the bound FcγRI giving a corrected response for each test sample. The whole experiment was repeated three times with the test samples being analysed in different orders each time.

| Corrected response (RU) | Binder |
| --- | --- |
| 65 | B1 |
| 5.9 | B2 |
| 1.4 | B3 |
| 2510 | B4 |

molecular target: T1, Histidine-tagged recombinant human …; test: SPR, His-FcγRI captured; Expt 1;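 further: SPR at 25 °C on anti-His antibody chip capturing FcγRI, Fc-variant antibodies injected at 100 µg/mL for 1 min, signal near end of injection minus buffer blank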

| Corrected response (RU) | Binder |
| --- | --- |
| 156 | B5 |
| 8.8 | B1 |
| 0.7 | B2 |

molecular target: T2, Histidine-tagged recombinant human FcγRI (CD64) (human, UniProt P12314 16-288); test: SPR, culture supernatant, captured His-FcγRI;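 further: biacore T200 SPR at 25 °C, anti-His capture, supernatants of HEK293 cells expressing IgG1 Fc variants injected 1 min, reference-subtracted response read 55 s after injection start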
T2 construct: bought; also called Sino Biological Cat. No. 12056-H08H
Method: Binding analysis was carried out by surface plasmon resonance at 25° C. using a Biacore® T200 instrument with Biacore® T200 control software. The running buffer (HBS-EP+) consisted of 0.01 M HEPES pH 7.4, containing 0.15 M NaCl, 3 mM EDTA, and 0.05% v/v Surfactant P20. The sample compartment was held at 4° C. during analysis.
The cell was activated by treatment with EDC/NHS for 7 min. The antibody was diluted to 5 μg/mL in 10 mM sodium acetate pH 4.5 and injected for 7 min at 5 μL/min. The flow cell was deactivated by injection of 1M ethanolamine for 7 min. This process was repeated in the absence of anti-his antibody on a separate flow cell to generate a reference surface. […] Samples of undiluted culture supernatants from HEK293 cells expressing human IgG1 antibodies comprising variant Fc regions were injected for 1 min at 30 μL/min and allowed to disassociate for 2 min. […] Therefore, regeneration between cycles was not necessary. Responses on the test flow cell (coupled with anti-His antibody) were analysed after subtraction of responses on the control flow cell (sham-coupled). The relative binding response was measured 55 sec after the beginning of sample injection. To account for any possible drift in response due to slow dissociation of the His-tagged FcγRI, the binding response was measured relative to a baseline interpolated between report points located before sample injection and at the end of dissociation.
The whole experiment was repeated three times. Due to the relatively crude nature of the samples (variable refractive index, presence of culture media and other cellular products), some sensorgrams were unsatisfactory and were eliminated from analysis. The mean and standard deviation of binding response was then calculated for each sample.

| Mean binding response [RU] | Binder |
| --- | --- |
| 13.9 | B6 |
| 16.1 | B7 |
| 20.1 | B8 |
| 25.4 | B9 |
| 17.2 | B10 |
| 11.2 | B11 |
| 14.3 | B12 |
| 6.7 | B13 |
| 10.7 | B14 |
| 26.3 | B15 |
| 19.2 | B16 |
| 12.8 | B17 |
| 13.4 | B18 |
| 32.1 | B19 |
| 18.9 | B20 |
| 15.8 | B21 |
| 11.1 | B22 |
